Here are results for 1 molecule from patent US20240076361A1 (EISAI R AND D MANAGEMENT, published 2024).

The assay deals with T1, non-phosphorylated Tau (Tau-441 (2N4R), rPeptide LLC) (human, UniProt P10636 1-758).
T1 construct: also called non-phosphorylated Tau protein (2N4R); recombinant Tau
Briefly: sandwich ELISA: antigen captured by coated anti-Tau antibody BT2, detected with the peroxidase-labelled antibody at 80 ng/mL; antigen concentration varied. On the procedure: Anti-Tau monoclonal antibody BT2 (Thermo Fisher Scientific) was adjusted with 50 mM Tris/HCl (pH 7.5) to a concentration of 1 microgram/mL, and then injected at 100 microliter/well in a Maxisorp cup (NUNC). The cup was placed in a humid box and coated overnight at 4 degrees Celsius. After the antibody solution was removed by aspiration, a blocking solution (5% skimmed milk (FUJIFILM Wako Pure Chemical), 50 mM Tris/HCl (pH 7.5), 150 mM NaCl, 0.1% sodium azide) was injected at 200 microliter/well, followed by blocking at room temperature for 2 hours or at 4 degrees Celsius for one day or more (hereinafter referred to as “BT2 cup”). The test recombinant antibodies: 5F6-4D1, 7G5-4B8, 2H8-1G7, 2H8-1G7(KC14S) and comparator antibodies: PT3 and anti-pT217 Tau polyclonal antibody (Genscript poly; Cat. No. A00896, Genscript) were labeled with peroxidase using a Peroxidase Labeling Kit-NH2 (DOJINDO MOLECULAR TECHNOLOGIES) in accordance with the instruction manual attached to the kit (hereinafter referred to as “peroxidase-labeled pT217 Tau antibodies”). […]

T1 sequence (P10636 other isoform, or with tags, fused parts or gaps limits assumed): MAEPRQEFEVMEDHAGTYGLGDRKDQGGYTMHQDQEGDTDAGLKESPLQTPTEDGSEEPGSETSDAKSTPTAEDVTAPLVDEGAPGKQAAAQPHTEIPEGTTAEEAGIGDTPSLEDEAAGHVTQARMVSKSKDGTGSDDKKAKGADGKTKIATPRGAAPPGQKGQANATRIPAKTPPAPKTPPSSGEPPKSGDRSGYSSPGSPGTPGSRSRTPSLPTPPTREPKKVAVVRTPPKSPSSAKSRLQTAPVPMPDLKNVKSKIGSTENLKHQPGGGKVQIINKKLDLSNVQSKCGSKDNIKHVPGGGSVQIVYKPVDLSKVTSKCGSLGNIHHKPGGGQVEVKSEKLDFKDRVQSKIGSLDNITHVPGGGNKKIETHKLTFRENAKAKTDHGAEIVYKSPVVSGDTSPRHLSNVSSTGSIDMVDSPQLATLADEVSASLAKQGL

B1: 2H8-1G7(KC14S) (antibody, mouse IgG2b, kappa, V domains shown)
VH: EVQLVESGGGLVKPGGSLKLSCAASGFTVSDYGMHWVRQAPEKGLEWIAYISSGSSTIYYVDTVKGRFTISRDNAKNTLFLQMTSLRSEDTAMYYCARRLSIWGTGTTVTVSS
VL: QIVLTQSPAIMSASPGEKVTMTCSASSSVSSMYWYHQKPGSSPRLLIYDTSNLASGVPVRFSGSGSGTSYSLTISRMEAEDAATYYCLQWSSYPLTFGAGTKLELKR
notes: Recombinant mouse IgG2b kappa
Turning to B1, the binding result is “no binding (tested: 80000 pg/mL)”.
